± gives the uncertainty stated by the source.
Experiment: protein stability index of a GFP-peptide fusion (yeast GPS) (PSI 1-4); higher = more stable; sorted into four equal gates, so the index is relative within each strain
In short: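 Tiled yeast protein peptides of 17 residues were each joined downstream of GFP, on plasmids that also express Cherry. The pooled library was maintained in yeast, and mid-log cultures in leucine-free medium were sorted into four equal gates on the GFP/Cherry ratio. Plasmids from every gate were amplified by PCR and sequenced on Illumina, with barcodes linking reads to strains. The protein stability index of a peptide is its gate-number-weighted read frequency summed over the gates.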

SKDVSRLLSALGPRGVS [SRP21]
protein stability index (doa10∆): 3.09 ± 0.14
protein stability index (pdr5∆): 2.54 ± 0.28
protein stability index (ubr1∆): 2.83 ± 0.084

SSFNFNKNLPFVWLSSE [SWI1]
protein stability index (doa10∆): 3.05 ± 0.046
protein stability index (pdr5∆): 2.32 ± 0.057
protein stability index (san1∆): 1.84 ± 0.053
protein stability index (ubr1∆): 2.4 ± 0.033

EGHDWKAPTKLDDPEAV [DIS3]
protein stability index (doa10∆): 3.31 ± 0.057
protein stability index (pdr5∆): 3.28 ± 0.054
protein stability index (san1∆): 3.23 ± 0.041
protein stability index (ubr1∆): 3.25 ± 0.046

LFEQLQTVSNKEDAKAT [SRP54]
protein stability index (doa10∆): 3.41 ± 0.14
protein stability index (pdr5∆): 3.04 ± 0.1
protein stability index (san1∆): 3.18 ± 0.054
protein stability index (ubr1∆): 3.18 ± 0.059

ISWCSLSETNGLHKFVK [PRE10]
protein stability index (doa10∆): 2.38 ± 0.089
protein stability index (pdr5∆): 2.73 ± 0.12
protein stability index (san1∆): 2.82 ± 0.11
protein stability index (ubr1∆): 2.44 ± 0.11

ELDKREDMIDQVSKKLS [SMC3]
protein stability index (doa10∆): 3.12 ± 0.061
protein stability index (pdr5∆): 3 ± 0.082
protein stability index (san1∆): 2.93 ± 0.075
protein stability index (ubr1∆): 2.81 ± 0.096

SLEEIIAEGQKKFATVP [RPP2B]
protein stability index (doa10∆): 2.77 ± 0.061
protein stability index (pdr5∆): 2.89 ± 0.058
protein stability index (san1∆): 2.93 ± 0.061
protein stability index (ubr1∆): 2.59 ± 0.04

KSLDEQLLLLSDERAKL [LRP1]
protein stability index (doa10∆): 2.73 ± 0.095
protein stability index (pdr5∆): 3.2 ± 0.1
protein stability index (san1∆): 2.84 ± 0.046
protein stability index (ubr1∆): 2.91 ± 0.088

AIANTLLYLRLKNIYVS [PRP8]
protein stability index (doa10∆): 1.38 ± 0.048
protein stability index (pdr5∆): 1.53 ± 0.05
protein stability index (san1∆): 1.38 ± 0.084
protein stability index (ubr1∆): 1.18 ± 0.045

EEASQLIEYMENDAKKS [NUT1]
protein stability index (doa10∆): 2.95 ± 0.081
protein stability index (pdr5∆): 3.2 ± 0.067
protein stability index (san1∆): 3.15 ± 0.061
protein stability index (ubr1∆): 3.04 ± 0.048

NLEFDSTNHPDYDVSKK [SRP14]
protein stability index (doa10∆): 3.15 ± 0.092
protein stability index (pdr5∆): 3.25 ± 0.12
protein stability index (san1∆): 3.2 ± 0.048
protein stability index (ubr1∆): 3.15 ± 0.065

LYKLNDKIAVAVAGLTA [PRE9]
protein stability index (doa10∆): 2.29 ± 0.056
protein stability index (pdr5∆): 2.14 ± 0.052
protein stability index (san1∆): 2.18 ± 0.095
protein stability index (ubr1∆): 2.31 ± 0.043

VVSTDLESIQKTKEAVA [RPL4A]
protein stability index (doa10∆): 2.95 ± 0.072
protein stability index (pdr5∆): 3.12 ± 0.083
protein stability index (san1∆): 2.9 ± 0.08
protein stability index (ubr1∆): 2.82 ± 0.063

VENIERVVMMKYDRKVP [RPO21]
protein stability index (doa10∆): 2.29 ± 0.17
protein stability index (pdr5∆): 2.67 ± 0.2
protein stability index (san1∆): 2.13 ± 0.19
protein stability index (ubr1∆): 2.36 ± 0.085

RAKSCGVDAMSVDDLKK [RPL1A]
protein stability index (doa10∆): 2.54 ± 0.078
protein stability index (pdr5∆): 2.41 ± 0.078
protein stability index (san1∆): 2.69 ± 0.075
protein stability index (ubr1∆): 2.48 ± 0.05

TSTDGKKRSKARKETYS [HTB1]
protein stability index (doa10∆): 3.07 ± 0.24
protein stability index (pdr5∆): 3.11 ± 0.14

PYAQKPLQGIFHNAVFN [QCR8]
protein stability index (doa10∆): 2.75 ± 0.057
protein stability index (pdr5∆): 2.52 ± 0.046
protein stability index (san1∆): 2.35 ± 0.045
protein stability index (ubr1∆): 2.57 ± 0.038

LDPLEMEGNAQPVNFNR [RPO31]
protein stability index (doa10∆): 3.37 ± 0.09
protein stability index (pdr5∆): 3.29 ± 0.081
protein stability index (san1∆): 2.93 ± 0.1
protein stability index (ubr1∆): 2.97 ± 0.1

YGYPSYSTIRQLVYKRG [RPL7A]
protein stability index (doa10∆): 1.27 ± 0.061
protein stability index (pdr5∆): 1.52 ± 0.046
protein stability index (san1∆): 1.25 ± 0.12
protein stability index (ubr1∆): 1.41 ± 0.047

IMVLDASIGQAAEQQSK [SRP54]
protein stability index (pdr5∆): 2.78 ± 0.29
protein stability index (san1∆): 3.18 ± 0.1
protein stability index (ubr1∆): 2.97 ± 0.13

MDEMDNVIRSLEQEYRL [RMP1]
protein stability index (doa10∆): 1.81 ± 0.064
protein stability index (pdr5∆): 1.21 ± 0.025
protein stability index (san1∆): 1.71 ± 0.15
protein stability index (ubr1∆): 2.05 ± 0.072

ENGIEVELLDSNDRVNP [ITC1]
protein stability index (doa10∆): 3.56 ± 0.078
protein stability index (pdr5∆): 3.2 ± 0.11
protein stability index (san1∆): 3.29 ± 0.062
protein stability index (ubr1∆): 3.19 ± 0.061

FDISMADLSSSEEEEDE [SSN2]
protein stability index (doa10∆): 3.14 ± 0.079
protein stability index (pdr5∆): 3.13 ± 0.077
protein stability index (san1∆): 3.11 ± 0.1
protein stability index (ubr1∆): 2.45 ± 0.063

PNVDLVTALEVLSLGRP [RGR1]
protein stability index (doa10∆): 1.95 ± 0.11
protein stability index (pdr5∆): 2.1 ± 0.063
protein stability index (san1∆): 2.47 ± 0.1
protein stability index (ubr1∆): 2.21 ± 0.058

SMILIQQTEKLNPQVAD [RPN2]
protein stability index (doa10∆): 1.53 ± 0.041
protein stability index (pdr5∆): 1.67 ± 0.044
protein stability index (san1∆): 1.65 ± 0.073
protein stability index (ubr1∆): 1.63 ± 0.03

IVKVFHGAFMDIIWLQR [RRP6]
protein stability index (doa10∆): 2.1 ± 0.056
protein stability index (pdr5∆): 1.53 ± 0.047
protein stability index (san1∆): 1.32 ± 0.073
protein stability index (ubr1∆): 1.18 ± 0.033

TCVSMAPIQLKIDLLSG [RGR1]
protein stability index (doa10∆): 1.67 ± 0.046
protein stability index (pdr5∆): 1.84 ± 0.062
protein stability index (san1∆): 1.87 ± 0.081
protein stability index (ubr1∆): 2 ± 0.038

LVFILAVVGNNMLLDPA [RRP42]
protein stability index (doa10∆): 1.56 ± 0.088
protein stability index (pdr5∆): 1.39 ± 0.076
protein stability index (san1∆): 1.94 ± 0.12
protein stability index (ubr1∆): 1.81 ± 0.063

LTSDLVYFGDENKVMLP [RRI2]
protein stability index (doa10∆): 3.21 ± 0.093
protein stability index (pdr5∆): 3.34 ± 0.089
protein stability index (san1∆): 3.07 ± 0.076
protein stability index (ubr1∆): 3.03 ± 0.068

IESQMRDLILTEYGRKY [PRP8]
protein stability index (doa10∆): 2.2 ± 0.1
protein stability index (pdr5∆): 2.04 ± 0.073
protein stability index (san1∆): 1.98 ± 0.098
protein stability index (ubr1∆): 3.03 ± 0.092

SEVGNCSGSGMGGVSAL [FAS2]
protein stability index (doa10∆): 3.15 ± 0.075
protein stability index (pdr5∆): 3.38 ± 0.064
protein stability index (san1∆): 3.29 ± 0.056
protein stability index (ubr1∆): 3.31 ± 0.05

RSLASFEQTAFSRHAQQ [SIR4]
protein stability index (doa10∆): 2.84 ± 0.059
protein stability index (pdr5∆): 2.73 ± 0.045
protein stability index (san1∆): 2.82 ± 0.05
protein stability index (ubr1∆): 2.77 ± 0.05

TFLPSYMKFSNKYLELC [RRI2]
protein stability index (doa10∆): 2.25 ± 0.052
protein stability index (pdr5∆): 2.35 ± 0.052
protein stability index (san1∆): 2.37 ± 0.073
protein stability index (ubr1∆): 2.37 ± 0.04

TNKGPLAQIWLASNMSN [MCD1]
protein stability index (doa10∆): 2.33 ± 0.096
protein stability index (pdr5∆): 1.26 ± 0.054
protein stability index (san1∆): 1.26 ± 0.2
protein stability index (ubr1∆): 1.17 ± 0.056

SEDSMNVQLRDVIATEP [SMD3]
protein stability index (doa10∆): 2.94 ± 0.1
protein stability index (pdr5∆): 3.36 ± 0.098
protein stability index (san1∆): 3.09 ± 0.065
protein stability index (ubr1∆): 3.23 ± 0.039

RQFLKANKTNLIESLNT [YML103C/NUP188]
protein stability index (doa10∆): 2.76 ± 0.053
protein stability index (pdr5∆): 2.97 ± 0.062
protein stability index (san1∆): 2.87 ± 0.047
protein stability index (ubr1∆): 2.99 ± 0.039

HSNESSNETIGEIQLLF [IRR1]
protein stability index (doa10∆): 2.68 ± 0.11
protein stability index (pdr5∆): 2.83 ± 0.14
protein stability index (san1∆): 3.27 ± 0.082
protein stability index (ubr1∆): 2.92 ± 0.084

KNVLANSIWGSSLRKNA [ITC1]
protein stability index (doa10∆): 1.49 ± 0.057
protein stability index (pdr5∆): 1.89 ± 0.05
protein stability index (san1∆): 1.82 ± 0.13
protein stability index (ubr1∆): 1.45 ± 0.042

LGPRGVSITPGKIEKIA [SRP21]
protein stability index (doa10∆): 2.02 ± 0.065
protein stability index (pdr5∆): 2.62 ± 0.049
protein stability index (san1∆): 1.98 ± 0.088
protein stability index (ubr1∆): 2.41 ± 0.039
